Where a chain is given by its changes, count along the chain named. Values belong to the binder of their own block, whether it stands above or below them.
How the values were obtained:
[1] = biological target: T1, TNF-R1 (a protein having the amino acid sequence, Accession No. M58286 registered at GENBANK) (UniProt P19438 30-211, limits assumed); test: SPR (BIACORE 2000), receptor on sensor tip; grade 3 = 0.5 to 2 times that of recombinant TNF-α
T1 construct: also called TNF receptor having a molecular weight of 55 kilo daltons
T1 sequence (looked up): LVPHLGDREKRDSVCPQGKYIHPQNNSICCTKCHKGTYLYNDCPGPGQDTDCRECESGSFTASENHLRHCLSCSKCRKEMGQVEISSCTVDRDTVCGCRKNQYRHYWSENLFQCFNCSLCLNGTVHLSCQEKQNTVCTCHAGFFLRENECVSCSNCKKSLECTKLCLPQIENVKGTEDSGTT
Text: (§1) Using the above detector based on surface plasmon resonance effect again, the resulting clones binding to TNF-R1 (or TNF-R2) were subjected to the remaining sensor tip conjugated with TNF-R2 (or TNF-R1) to measure receptor binding affinity and select clones having a variation of receptor binding affinity. […] The resulting DNAs were digested with restrict enzymes NdeI and BamHI to obtain DNA fragments. The resulting DNA fragments were introduced into a plasmid vector containing T7 promoter region, T7 terminator region, ampicillin resistant gene region and ColE1/Ori region (product name “pET-3a”, manufactured by “Novagen®” (EMD Biosciences, Inc.)) at the position of the above restriction sites. The resulting plasmid was introduced into E. coli BL21DE3 strain to obtain a transformed E. coli for producing the TNF mutant proteins. The obtained transformed E. coli was cultured according to usual method and centrifuged to collect E. coli pellet. The resulting pellet was washed twice with TES buffer (pH 8.0) (20 mM Tris-HCl, 10 mM ethylene diamine tetraacetic acid and 0.5 M sodium chloride) and admixed with TES buffer (pH 8.0) containing 0.2 mg/ml lysozyme. The resulting suspension was sonicated according to usual manner, and centrifuged to collect a precipitate containing the produced TNF mutant protein. The resulting precipitate was treated three times in a manner of admixing with TES buffer containing 1 (w/w) % Triton X-100, removed from supernatant by centrifuging, admixed with 50 mM Tris-HCl (pH 7.0) containing 8 M guanidine hydrochloride and 50 mM dithiothreitol, with stirring for 16 hours at ambient temperature under shielded condition, and centrifuged to collect a supernatant. The resulting supernatant was gently admixed with 100 time volumes of a aqueous solution containing 1 M Tris, 0.9 (w/v) % sodium chloride, 0.4 M L-arginine chloride, 2.5 mM reduced glutathione, 0.5 mM oxidized glutathione and 0.05 (w/v) % Tween 20, and kept at 4° C. for 16 hours.

[2] = biological target: T2, TNF-R2 (a protein having the amino acid sequence, Accession No. M55994 registered at GENBANK) (UniProt P20333 23-257, limits assumed); test: as above
T2 construct: also called TNF receptor with 75 kilo daltons
T2 sequence (looked up): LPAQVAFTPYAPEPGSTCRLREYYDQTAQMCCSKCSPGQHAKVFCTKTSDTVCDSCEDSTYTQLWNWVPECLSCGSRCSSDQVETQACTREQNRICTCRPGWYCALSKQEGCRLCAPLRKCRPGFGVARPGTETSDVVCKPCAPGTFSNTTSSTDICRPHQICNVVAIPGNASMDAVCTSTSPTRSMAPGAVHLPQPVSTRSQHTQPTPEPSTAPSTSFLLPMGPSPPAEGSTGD
Text: as §1

[3] = biological target: T1, TNF-R1 (a protein having the amino acid …); test: SPR (BIACORE 2000), receptor on sensor tip; grade 1 = 0.001 to 0.1 time that of recombinant TNF-α
Text: as §1

[4] = biological target: T2, TNF-R2 (a protein having the amino acid …); test: SPR (BIACORE 2000), receptor on sensor tip; grade 0 = weakened to 0.001 or less of that of recombinant TNF-α
Text: as §1

[5] = biological target: T1, TNF-R1 (a protein having the amino acid …); test: SPR (BIACORE 2000), receptor on sensor tip; grade 4 = two times or more that of recombinant TNF-α
Text: as §1

[6] = biological target: T1, TNF-R1 (a protein having the amino acid …); test: SPR (BIACORE 2000), receptor on sensor tip; grade 0 = weakened to 0.001 or less of that of recombinant TNF-α
Text: as §1

[7] = biological target: T1, TNF-R1 (a protein having the amino acid …); test: SPR (BIACORE 2000), receptor on sensor tip; grade 2 = 0.5 to 0.1 time that of recombinant TNF-α
Text: as §1

[8] = biological target: T2, TNF-R2 (a protein having the amino acid …); test: SPR (BIACORE 2000), receptor on sensor tip; grade 4 = two times or more that of recombinant TNF-α
Text: as §1

[9] = biological target: T3, TNF-R1 on L-M cells (mouse, UniProt P25118 30-454); test: cell-based or functional assay
T3 sequence (looked up): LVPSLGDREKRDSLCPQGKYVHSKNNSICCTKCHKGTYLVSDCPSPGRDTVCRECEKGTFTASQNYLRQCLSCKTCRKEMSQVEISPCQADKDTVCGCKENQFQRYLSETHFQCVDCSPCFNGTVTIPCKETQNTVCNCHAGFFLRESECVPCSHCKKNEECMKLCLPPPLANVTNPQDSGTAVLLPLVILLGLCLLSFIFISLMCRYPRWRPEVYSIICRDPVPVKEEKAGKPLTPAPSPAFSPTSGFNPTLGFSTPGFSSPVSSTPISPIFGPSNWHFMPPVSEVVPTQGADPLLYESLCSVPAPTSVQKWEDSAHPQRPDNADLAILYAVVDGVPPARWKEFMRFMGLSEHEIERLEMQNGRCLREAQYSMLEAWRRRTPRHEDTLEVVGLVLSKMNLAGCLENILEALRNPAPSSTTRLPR

[10] = biological target: T4, TNF-R1 on HEp-2 cells (human, UniProt P19438 30-455); test: cell-based or functional assay
T4 sequence (looked up): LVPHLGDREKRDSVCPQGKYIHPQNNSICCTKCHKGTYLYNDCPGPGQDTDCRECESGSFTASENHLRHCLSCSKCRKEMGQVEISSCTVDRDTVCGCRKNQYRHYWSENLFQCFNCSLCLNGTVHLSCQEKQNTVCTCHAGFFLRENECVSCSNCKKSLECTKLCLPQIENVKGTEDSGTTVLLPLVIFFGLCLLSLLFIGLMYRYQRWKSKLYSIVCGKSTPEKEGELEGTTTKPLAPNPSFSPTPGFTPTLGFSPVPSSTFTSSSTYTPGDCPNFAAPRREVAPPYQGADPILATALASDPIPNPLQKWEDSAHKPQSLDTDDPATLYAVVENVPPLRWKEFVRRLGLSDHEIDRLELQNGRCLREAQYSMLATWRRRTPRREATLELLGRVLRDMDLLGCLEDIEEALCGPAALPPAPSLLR

[11] = biological target: T2, TNF-R2 (a protein having the amino acid …); test: SPR (BIACORE 2000), receptor on sensor tip; grade 1 = 0.001 to 0.1 time that of recombinant TNF-α
Text: as §1

B1: lysine-replaced human TNF (ligand)
chain: VRSSSRTPSDMPVAHVVANPQAEGQLQWLNRRANALLANGVELRDNQLVVPSEGLYLIYSQVLFSGQGCPSTHVLLTHTISRIAVSYQTPVNLLSAIRSPCQRETPEGAEANPWYEPIYLGGVFQLEPGDRLSAEINRPDYLDFAESGQVYFGIIAL
notes: Parent of all clones; also called Lysine-replaced TNF; lysine-replaced mutant
binding affinity relative to recombinant TNF-α [1]: 0.5 to 2 fold | binding affinity relative to recombinant TNF-α [2]: 0.5 to 2 fold

B3: TNF mutant protein of clone No. 5 (ligand)
chain: B1 chain with L29R, R31S, R32H, A145S, E146G, S147T
notes: Mutant of lysine-replaced TNF, made in E. coli
binding affinity relative to recombinant TNF-α [1]: 0.5 to 2 fold | binding affinity relative to recombinant TNF-α (grade) [4]: ≤ 0.001 times that of recombinant TNF-α

B5: TNF mutant protein of clone No. 4 (ligand)
chain: B1 chain with L29K, R31A, R32G, E146S, S147T
notes: as for B3
binding affinity relative to recombinant TNF-α [1]: 0.5 to 2 fold | binding affinity relative to recombinant TNF-α (grade) [4]: ≤ 0.001 times that of recombinant TNF-α

B6: TNF mutant protein of clone No. 11 (ligand)
chain: B1 chain with A145R, E146T, S147D
notes: as for B3
binding affinity relative to recombinant TNF-α [2]: 0.5 to 2 fold | binding affinity relative to recombinant TNF-α (grade) [6]: ≤ 0.001 times that of recombinant TNF-α

B11: TNF mutant protein of clone No. 10 (ligand)
chain: B1 chain with A145K, E146D, S147T
notes: as for B3
binding affinity relative to recombinant TNF-α [3]: 0.001 to 0.1 fold | binding affinity relative to recombinant TNF-α [8]: ≥ 2 fold

Further lines, with some results ahead:

binding affinity relative to recombinant TNF-α [2]: 0.5 to 2 fold | binding affinity relative to recombinant TNF-α [3]: 0.001 to 0.1 fold
B2: TNF mutant protein of clone No. 12 (ligand)
chain: B1 chain with A145R, S147T
notes: as for B3

binding affinity relative to recombinant TNF-α [2]: 0.5 to 2 fold | binding affinity relative to recombinant TNF-α [5]: ≥ 2 fold
B4: TNF mutant protein of clone No. 31 (ligand)
chain: B1 chain with A84S, V85K, S86T, Q88S, T89H
notes: as for B3

binding affinity relative to recombinant TNF-α [7]: 0.1 to 0.5 fold | binding affinity relative to recombinant TNF-α [8]: ≥ 2 fold
B7: TNF mutant protein of clone No. 13 (ligand)
chain: B1 chain with E146D, S147D
notes: as for B3

binding affinity relative to recombinant TNF-α (grade) [4]: ≤ 0.001 times that of recombinant TNF-α | binding affinity relative to recombinant TNF-α [5]: ≥ 2 fold
B8: TNF mutant protein of clone No. 35 (ligand)
chain: B1 chain with A84T, V85P, S86A, Y87I, Q88N, T89R
notes: Mutant of lysine-replaced TNF, made in E. coli; also called TNF antagonist of clone No. 35
Viability (%) of L-M cells, 10 ng/ml TNF-α + 1,000 ng/ml TNF antagonist (17 without antagonist) [9]: 43% | Viability (%) of L-M cells, 10 ng/ml TNF-α + 10,000 ng/ml TNF antagonist (17 without antagonist) [9]: 58% | Viability (%) of L-M cells, 10 ng/ml TNF-α + 100,000 ng/ml TNF antagonist (17 without antagonist) [9]: 61% | Viability (%) of L-M cells, 10 ng/ml TNF-α + 500,000 ng/ml TNF antagonist (17 without antagonist) [9]: 64% | Viability (%) of HEp-2 cells, 10 ng/ml TNF-α + 1,000 ng/ml TNF antagonist (9 without antagonist) [10]: 10% | Viability (%) of HEp-2 cells, 10 ng/ml TNF-α + 10,000 ng/ml TNF antagonist (9 without antagonist) [10]: 18% | Viability (%) of HEp-2 cells, 10 ng/ml TNF-α + 100,000 ng/ml TNF antagonist (9 without antagonist) [10]: 86% | Viability (%) of HEp-2 cells, 10 ng/ml TNF-α + 500,000 ng/ml TNF antagonist (9 without antagonist) [10]: 103%

binding affinity relative to recombinant TNF-α [2]: 0.5 to 2 fold | binding affinity relative to recombinant TNF-α [7]: 0.1 to 0.5 fold
B9: TNF mutant protein of clone No. 14 (ligand)
chain: B1 chain with E146N, S147D
notes: as for B3

binding affinity relative to recombinant TNF-α [7]: 0.1 to 0.5 fold | binding affinity relative to recombinant TNF-α [11]: 0.001 to 0.1 fold
B10: TNF mutant protein of clone No. 15 (ligand)
chain: B1 chain with A84T, V85N, S86H, Q88S, T89N
